Measured values from paper PMC12677461.

Target: Gαo, alpha subunit of the heterotrimeric G protein Go (native, mouse brain) (mouse (endogenous in BALB/c mouse brain)) (UniProt P18872)
Experiment: co-IP; mouse brain lysate (2 mg/ml in IP buffer: 50 mM HEPES pH 7.4, 100 mM NaCl, 1 mM EDTA, 3 mM EGTA, 10 mM MgCl2, 1% Triton X-100) with 100 µM GDP, 4 °C, 2 h; Gαo precipitated with anti-Gαo sc-13532 cross-linked to protein A/G agarose; read by protein stain and western blot

Sequence of UniProt P18872 (P18872 whole entry, one chain of several): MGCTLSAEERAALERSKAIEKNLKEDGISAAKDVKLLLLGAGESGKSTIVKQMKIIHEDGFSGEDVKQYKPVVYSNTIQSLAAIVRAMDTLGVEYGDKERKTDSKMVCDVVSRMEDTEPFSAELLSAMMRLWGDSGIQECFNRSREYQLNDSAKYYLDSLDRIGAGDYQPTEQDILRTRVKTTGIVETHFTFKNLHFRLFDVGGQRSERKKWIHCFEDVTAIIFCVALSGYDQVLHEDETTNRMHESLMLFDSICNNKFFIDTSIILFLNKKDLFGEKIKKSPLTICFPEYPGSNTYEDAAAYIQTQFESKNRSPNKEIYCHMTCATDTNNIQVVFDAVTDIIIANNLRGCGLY

## Gβγ (G protein β and γ subunits, native, mouse brain) (from UniProt P62874 1-340; P63213 1-71) (complex)
  stoichiometry N: 1
